Experimental data taken from publication PMC11503464, “Copper-61 is an advantageous alternative to gallium-68 for PET imaging of somatostatin receptor-expressing tumors: a head-to-head comparative preclinical study” (Frontiers in Nuclear Medicine, 2024).

Legend:
[1] = type: physicochemical; settings: pH 7.4, log D(O/PBS pH 7.4)
Method: Briefly, the radiotracer (10 µl, 1 µM) was added to 1 ml of a 1:1 pre-saturated mixture of 1-octanol and phosphate-buffered saline (PBS pH 7.4). The solution was vortexed for 30 min and then centrifuged at 3,000 rpm to achieve phase separation. Aliquots of 0.1 ml from each phase were collected and measured in a γ-counter. The distribution coefficient was calculated as the average of the logarithmic values (n = 3) of the ratio between the radioactivity in the organic and PBS phases. [^68Ga]Ga-DOTA-TOC was used as a reference.

[2] = Stability of labeling solutions at room temperature by radio-HPLC; type: physicochemical; settings: labeling solution stored at room temperature
Method: An aliquot of DOTA-TOC or NODAGA-TOC (3–6 nmol, 1 mg/ml in TraceSelect water) was diluted in 0.25–0.30 ml ammonium acetate (0.5 M, pH 8), followed by the addition of [^61Cu]CuCl2 (30–150 MBq). The reaction mixture was incubated for 15 min at 95°C (DOTA-TOC) or at room temperature (NODAGA-TOC). The pH of the reaction mixture was between 5 and 6. Quality control was performed on a Shimadzu 2020 HPLC system connected to a Berthold radio detector (Flow Star 513).

HEK-SST2 cells [3] = experiment: Efflux from HEK-SST2 cells; type: cell-based, human
Method: The efflux was studied after 1 h incubation of the cells with the radiotracer at 37°C and the removal of the unbound fraction and the cell membrane-bound fraction, as described above (acid-wash). The cells were then incubated with fresh medium at 37°C either alone or with a competitor (1,000-fold excess of DOTA-TOC, 2.5 µM/well) for 10, 20, 30, 45, 60, 90, 120, 150, 180, and 240 min. At each time point, the efflux (or retention) was measured after the removal of the medium without or with the competitor and replacement with fresh pre-warmed (37°C) medium alone or with the competitor. At the end of the experiment, the cells were detached using 1 M NaOH at 37°C and collected to determine the remaining cell-associated radiotracer.

HEK-SST2 cells [4] = experiment: Cellular uptake and distribution on intact HEK-SST2 cells; type: cell-based, human; settings: specific uptake, after 4 h at 37°C
Method: At the defined time points, the medium was removed, and the cells were washed twice with ice-cold PBS. The cells were then treated twice for 5 min with ice-cold glycine solution (0.05 M, pH 2.8) to detach the cell membrane-bound fraction (acid released). Afterward, the cells containing the internalized fraction were detached using NaOH 1 M at 37°C and collected for measurement. [^68Ga]Ga-DOTA-TOC was evaluated as a reference.

[5] = set-up: species or system mice; settings: mouse, in vivo
Method: (§1) [^64Cu]CuCl2 was provided by the University Hospital Tübingen, Germany. […] OLINDA/EXM 1.0 was used to integrate the fitted time-activity curves and to estimate the organ and effective doses using the whole-body adult female model. For all the calculations, the assumption was made that the mouse biodistribution, determined as the %IA/organ, was the same as the human biodistribution. The dosimetry estimates were performed as previously described ([14]).

in vivo [6] = settings: female, athymic nude-Foxn1^nu/Foxn1^+, mouse, 200 pmol, total radioactivity
in vivo [7] = experiment: in vivo; set-up: species or system mice; settings: BALB/c, mouse, total radioactivity
Method: as §1

## C[C@@H](O)[C@@H]1NC(=O)[C@H](CCCCN)NC(=O)[C@@H](Cc2c[nH]c3ccccc23)NC(=O)[C@H](Cc2ccc(O)cc2)NC(=O)[C@@H](NC(=O)[C@@H](Cc2ccccc2)NC(=O)CCC(C(=O)O)N2CCN(CC(=O)O)CCN(CC(=O)O)CC2)CSSC[C@@H](C(=O)N[C@H](CO)[C@@H](C)O)NC1=O (some centres unmarked) [[^61Cu]Cu-NODAGA-TOC, metal not drawn]
[1]
  logD: -2.6 ± 0.24
[2]; 2 h after end of synthesis
  Radiochemical purity (%) 2 h: 98 ± 1%
[2]; 4 h after end of synthesis
  Radiochemical purity (%) 4 h: 97 ± 1%
HEK-SST2 cells [3]; after 2 h, 37°C, no further increase at 4 h
  Efflux plateau in the absence of a competitor: approximately 40%
HEK-SST2 cells [3]; after 4 h at 37°C, DOTA-TOC (competitor) added to the medium
  Efflux with competitor: 80%
HEK-SST2 cells [4]
  Cellular uptake (surface bound + internalized): 70.9 ± 3.5%
[5]
  Total absorbed dose, Adrenals: 6.77 × 10^−3 mGy/MBq
  Total absorbed dose, Brain: 1.53 × 10^−5 mGy/MBq
  Total absorbed dose, Breasts: 2.14 × 10^−4 mGy/MBq
  Total absorbed dose, Gallbladder wall: 2.14 × 10^−3 mGy/MBq
  Total absorbed dose, Heart wall: 1.02 × 10^−3 mGy/MBq
  Total absorbed dose, Kidneys: 9.65 × 10^−2 mGy/MBq
  Total absorbed dose, LLI wall: 8.28 × 10^−4 mGy/MBq
  Total absorbed dose, Liver: 4.06 × 10^−3 mGy/MBq
  Total absorbed dose, Lungs: 1.67 × 10^−3 mGy/MBq
  Total absorbed dose, Muscle: 5.63 × 10^−4 mGy/MBq
  Total absorbed dose, Osteogenic cells: 6.57 × 10^−4 mGy/MBq
  Total absorbed dose, Ovaries: 1.19 × 10^−3 mGy/MBq
  Total absorbed dose, Pancreas: 2.23 × 10^−2 mGy/MBq
  Total absorbed dose, Red marrow: 1.07 × 10^−3 mGy/MBq
  Total absorbed dose, Skin: 2.42 × 10^−4 mGy/MBq
  Total absorbed dose, Small intestine: 1.12 × 10^−2 mGy/MBq
  Total absorbed dose, Spleen: 3.49 × 10^−3 mGy/MBq
  Total absorbed dose, Stomach wall: 5.34 × 10^−3 mGy/MBq
  Total absorbed dose, Thymus: 1.98 × 10^−4 mGy/MBq
  Total absorbed dose, Thyroid: 5.27 × 10^−5 mGy/MBq
  Total absorbed dose, Total body: 1.27 × 10^−3 mGy/MBq
  Total absorbed dose, ULI wall: 2.14 × 10^−3 mGy/MBq
  Total absorbed dose, Urinary bladder wall: 3.48 × 10^−4 mGy/MBq
  Total absorbed dose, Uterus: 1.03 × 10^−3 mGy/MBq
In vivo [6]; Adrenal uptake
  tissue uptake at 1 h: 0.99 ± 0.17 %ID/g
  tissue uptake at 4 h: 0.67 ± 0.26 %ID/g
In vivo [6]; Blood uptake
  tissue uptake at 1 h: 0.22 ± 0.04 %ID/g
  tissue uptake at 4 h: 0.04 ± 0.02 %ID/g
In vivo [6]; Bone uptake
  tissue uptake at 1 h: 0.46 ± 0.17 %ID/g
  tissue uptake at 4 h: 0.31 ± 0.11 %ID/g
In vivo [6]; Heart uptake
  tissue uptake at 1 h: 0.16 ± 0.04 %ID/g
  tissue uptake at 4 h: 0.07 ± 0.03 %ID/g
In vivo [6]; Intestine uptake
  tissue uptake at 1 h: 0.92 ± 0.12 %ID/g
  tissue uptake at 4 h: 0.65 ± 0.23 %ID/g
In vivo [6]; Kidneys uptake
  tissue uptake at 1 h: 12.5 ± 2.25 %ID/g
  tissue uptake at 4 h: 4.36 ± 0.92 %ID/g
In vivo [6]; Liver uptake
  tissue uptake at 1 h: 0.29 ± 0.04 %ID/g
  tissue uptake at 4 h: 0.27 ± 0.09 %ID/g
In vivo [6]; Lung uptake
  tissue uptake at 1 h: 1.09 ± 0.2 %ID/g
  tissue uptake at 4 h: 0.51 ± 0.24 %ID/g
In vivo [6]; Muscle uptake
  tissue uptake at 1 h: 0.16 ± 0.06 %ID/g
  tissue uptake at 4 h: 0.07 ± 0.04 %ID/g
In vivo [6]; Pancreas uptake
  tissue uptake at 1 h: 2.59 ± 0.49 %ID/g
  tissue uptake at 4 h: 0.6 ± 0.21 %ID/g
In vivo [6]; Pituitary uptake
  tissue uptake at 1 h: 3.8 ± 1.35 %ID/g
  tissue uptake at 4 h: 2.97 ± 0.95 %ID/g
In vivo [6]; SST2-tumor uptake
  tissue uptake at 1 h: 8.88 ± 3.19 %ID/g
  tissue uptake at 4 h: 7.39 ± 1.36 %ID/g
In vivo [6]; Spleen uptake
  tissue uptake at 1 h: 0.22 ± 0.05 %ID/g
  tissue uptake at 4 h: 0.1 ± 0.04 %ID/g
In vivo [6]; Stomach uptake
  tissue uptake at 1 h: 2.34 ± 0.43 %ID/g
  tissue uptake at 4 h: 1.22 ± 0.25 %ID/g

## C[C@@H](O)[C@@H]1NC(=O)[C@H](CCCCN)NC(=O)[C@@H](Cc2c[nH]c3ccccc23)NC(=O)[C@H](Cc2ccc(O)cc2)NC(=O)[C@@H](NC(=O)[C@@H](Cc2ccccc2)NC(=O)CCC(C(=O)O)N2CCN(CC(=O)O)CCN(CC(=O)O)CC2)CSSC[C@@H](C(=O)N[C@H](CO)[C@@H](C)O)NC1=O (some centres unmarked) [[64Cu]Cu-NODAGA-TOC, metal not drawn]
In vivo [7]; Adrenal uptake
  tissue uptake at 12 h: 0.32 ± 0.2 %ID/g
  tissue uptake at 24 h: 0.18 ± 0.1 %ID/g
In vivo [7]; Femur uptake
  tissue uptake at 12 h: 0.11 ± 0.04 %ID/g
In vivo [7]; Intestine uptake
  tissue uptake at 12 h: 0.57 ± 0.07 %ID/g
  tissue uptake at 24 h: 0.31 ± 0.05 %ID/g
In vivo [7]; Kidneys uptake
  tissue uptake at 12 h: 2.46 ± 0.85 %ID/g
  tissue uptake at 24 h: 0.66 ± 0.15 %ID/g
In vivo [7]; Liver uptake
  tissue uptake at 12 h: 0.37 ± 0.09 %ID/g
  tissue uptake at 24 h: 0.26 ± 0.02 %ID/g
In vivo [7]; Lung uptake
  tissue uptake at 12 h: 0.51 ± 0.12 %ID/g
  tissue uptake at 24 h: 0.27 ± 0.09 %ID/g
In vivo [7]; Pancreas uptake
  tissue uptake at 12 h: 0.14 ± 0.03 %ID/g
In vivo [7]; Pituitary uptake
  tissue uptake at 12 h: 0.48 ± 0.25 %ID/g
  tissue uptake at 24 h: 0.43 ± 0.29 %ID/g
In vivo [7]; Stomach uptake
  tissue uptake at 12 h: 0.75 ± 0.19 %ID/g
  tissue uptake at 24 h: 0.26 ± 0.04 %ID/g

## C[C@@H](O)[C@@H]1NC(=O)[C@H](CCCCN)NC(=O)[C@@H](Cc2c[nH]c3ccccc23)NC(=O)[C@H](Cc2ccc(O)cc2)NC(=O)[C@@H](NC(=O)[C@@H](Cc2ccccc2)NC(=O)CN2CCN(CC(=O)O)CCN(CC(=O)O)CCN(CC(=O)O)CC2)CSSC[C@@H](C(=O)N[C@H](CO)[C@@H](C)O)NC1=O [[^61Cu]Cu-DOTA-TOC, metal not drawn]
In vivo [6]; Adrenal uptake
  tissue uptake at 1 h: 2.05 ± 0.58 %ID/g
  tissue uptake at 4 h: 1.14 ± 0.5 %ID/g
In vivo [6]; Blood uptake
  tissue uptake at 1 h: 0.38 ± 0.09 %ID/g
  tissue uptake at 4 h: 0.21 ± 0.04 %ID/g
In vivo [6]; Bone uptake
  tissue uptake at 1 h: 0.6 ± 0.16 %ID/g
  tissue uptake at 4 h: 0.5 ± 0.19 %ID/g
In vivo [6]; Heart uptake
  tissue uptake at 4 h: 0.49 ± 0.06 %ID/g
In vivo [6]; Intestine uptake
  tissue uptake at 4 h: 2.06 ± 0.92 %ID/g
In vivo [6]; Kidneys uptake
  tissue uptake at 1 h: 5.32 ± 0.58 %ID/g
  tissue uptake at 4 h: 2.33 ± 0.39 %ID/g
In vivo [6]; Liver uptake
  tissue uptake at 4 h: 2.52 ± 0.56 %ID/g
In vivo [6]; Lung uptake
  tissue uptake at 1 h: 1.96 ± 0.16 %ID/g
  tissue uptake at 4 h: 1.25 ± 0.08 %ID/g
In vivo [6]; Muscle uptake
  tissue uptake at 4 h: 0.16 ± 0.08 %ID/g
In vivo [6]; Pancreas uptake
  tissue uptake at 1 h: 4.29 ± 0.5 %ID/g
  tissue uptake at 4 h: 0.68 ± 0.07 %ID/g
In vivo [6]; Pituitary uptake
  tissue uptake at 1 h: 3 ± 1.32 %ID/g
  tissue uptake at 4 h: 2.43 ± 1.27 %ID/g
In vivo [6]; SST2-tumor uptake
  tissue uptake at 1 h: 7.44 ± 2.33 %ID/g
  tissue uptake at 4 h: 6.85 ± 2.48 %ID/g
In vivo [6]; Spleen uptake
  tissue uptake at 1 h: 0.55 ± 0.08 %ID/g
  tissue uptake at 4 h: 0.37 ± 0.09 %ID/g
In vivo [6]; Stomach uptake
  tissue uptake at 1 h: 4.34 ± 0.5 %ID/g
  tissue uptake at 4 h: 2.09 ± 0.5 %ID/g
